Experimental data from patent US7285408B2, “Crystalline form of an n231 mutant catalytic domain of ADAM33 and methods of use thereof” (Schering Corporation, priority 2002, dated 2007).

Experiments:
[1] = Storage stability of purified protein (N-terminal sequencing, mass spectrometry, enzymatic assay); assay type: physicochemical; conditions: 4° C.; expression induced with 0.5 mM CuSO4, purified as complex of pro and catalytic domains
Method: The Ni-NTA column was washed with 15-20 CV of buffer C until a stable baseline was achieved, and the protein was eluted with 250 mM imidazole in buffer C. The eluted protein was concentrated to 5-15 mg/ml, and then applied to a SUPERDEX-75 gel filtration column equilibrated with buffer GF (25 mM HEPES, pH 7.5, 150 mM NaCl, 10% glycerol, 50 mM imidazole). Fractions corresponding to the monomer of ADAM33 were pooled, and diluted to 0.3 mg/ml, flash-frozen in liquid nitrogen, and stored at −80° C. […] When used for crystallography, the frozen protein was thawed on ice and concentrated to 10 mg/ml using Ultrafree®-15 Centrifugation Filter Device (Millipore, Bedford, Mass.). The thawed protein was immediately subjected to crystallization trials. Using this protocol a total of 1-9 mg of ADAM33 N231Q comprising the amino acid sequence of SEQ ID NO: 8 and SEQ ID NO: 36 (the C-Terminal Ser-Gly His6 Tag) was obtained from 1 liter of conditioned medium. 5 mM CaCl2 is preferably included throughout the purification process. It is also preferred that 5 mM CaCl2 is retained in the storage buffer.
After designing an appropriate DNA construct, the expression of the ADAM33 catalytic domain in an eukaryotic cell line needed to be optimized. […] However, under these induction conditions, Cu^2+ readily binds to the C-terminal His6 Tag. […]

[2] = Thermal denaturation monitored by circular dichroism (220 nm) as a function of temperature and CaCl2 concentration; assay type: physicochemical
Method: The effect of CaCl2 on the stability of the ADAM33 N231Q catalytic domain as determined by thermal denaturation: The effect of the concentration of CaCl2 on the retention of the secondary structure of the ADAM33 N231Q catalytic domain was monitored by circular dichroism (λ220 nm) as a function of temperature. A parallel study was performed replacing the CaCl2 with NaCl to control for the effect of the corresponding increase in ionic strength. The ADAM33 N231Q catalytic domain was purified as described above and then diluted to 0.2 mg/ml. The sample was then dialyzed against 25 mM Hepes, pH 7.5, 5% glycerol overnight. The temperature dependent protein denaturation was performed using a JASCO 810 spectropolarimeter under the following conditions: • Protein concentration: 0.2 mg/ml (based on a BioRad Protein Assay) • Cell length: 0.1 cm • Monitor wavelength: 220 nm • Temperature slope: 2° C./min • Measurement range: 20-80° C.
Therefore, greater than 10 μM CaCl2, and preferably between 0.3-100 mM CaCl2 should be included to maintain the stability of this protein.

B1: wild type (WT) ADAM33: ADAM33 protein fragment with pre, pro and wild type catalytic domain and Ser-Gly-His6 Tag expressed in Drosophila S2 cells (SEQ ID NO: 2) (protein)
chain: MKLCILLAVVAFVGLSLGRSPWPGVPLQGHIPGQPVTPHWVLDGQPWRTVSLEEPVSKPDMGLVALEAEGQELLLELEKNHRLLAPGYIETHYGPDGQPVVLAPNHTDHCHYQGRVRGFPDSWVVLCTCSGMSGLITLSRNASYYLRPWPPRGSKDFSTHEIFRMEQLLTWKGTCGHRDPGNKAGMTSLPGGPQSRGRREARRTRKYLELYIVADHTLFLTRHRNLNHTKQRLLEVANYVDQLLRTLDIQVALTGLEVWTERDRSRVTQDANATLWAFLQWRRGLWAQRPHDSAQLLTGRAFQGATVGLAPVEGMCRAESSGGVSTDHSELPIGAAATMAHEIGHSLGLSHDPDGCCVEAAAESGGCVMAAATGHPFPRVFSACSRRQLRAFFRKGGGACLSNAP
modifications: Ser-Gly-His6 tag; homo sapiens
stability of purified protein [1]: labile

B2: ADAM33 N231Q: modified human ADAM33 catalytic domain, Asn231 replaced by glutamine (SEQ ID NO: 8) with C-terminal Ser-Gly His6 Tag (protein)
chain: EARRTRKYLELYIVADHTLFLTRHRNLQHTKQRLLEVANYVDQLLRTLDIQVALTGLEVWTERDRSRVTQDANATLWAFLQWRRGLWAQRPHDSAQLLTGRAFQGATVGLAPVEGMCRAESSGGVSTDHSELPIGAAATMAHEIGHSLGLSHDPDGCCVEAAAESGGCVMAAATGHPFPRVFSACSRRQLRAFFRKGGGACLSNAPSGHHHHHH
modifications: C-terminal Ser-Gly His6 tag; homo sapiens
ΔDenaturation Temp. ([2]; CaCl2 0 mM): 0.0 °C
Denaturation Temp. ([2]; CaCl2 0 mM, 0.2 mg/ml protein, 25 mM Hepes pH 7.5, 5% glycerol): 43.5 °C
Denaturation Temp. ([2]; CaCl2 0.003 mM): 50.6 °C
ΔDenaturation Temp. ([2]; CaCl2 0.003 mM vs 0 mM): 7.1 °C
Denaturation Temp. ([2]; CaCl2 0.03 mM): 52.9 °C
ΔDenaturation Temp. ([2]; CaCl2 0.03 mM vs 0 mM): 9.4 °C
Denaturation Temp. ([2]; CaCl2 0.3 mM): 53.9 °C
ΔDenaturation Temp. ([2]; CaCl2 0.3 mM vs 0 mM): 10.4 °C
Denaturation Temp. ([2]; CaCl2 0.5 mM): 56.9 °C
ΔDenaturation Temp. ([2]; CaCl2 0.5 mM vs 0 mM): 13.4 °C
Denaturation Temp. ([2]; CaCl2 1.0 mM): 57.9 °C
ΔDenaturation Temp. ([2]; CaCl2 1.0 mM vs 0 mM): 14.4 °C
Denaturation Temp. ([2]; CaCl2 2.5 mM): 60.6 °C
ΔDenaturation Temp. ([2]; CaCl2 2.5 mM vs 0 mM): 17.1 °C
Denaturation Temp. ([2]; CaCl2 5.0 mM): 61.5 °C
ΔDenaturation Temp. ([2]; CaCl2 5.0 mM vs 0 mM): 18.0 °C
Denaturation Temp. ([2]; CaCl2 10.0 mM): 63.3 °C
ΔDenaturation Temp. ([2]; CaCl2 10.0 mM vs 0 mM): 19.8 °C
Denaturation Temp. ([2]; CaCl2 25.0 mM): 64.6 °C
ΔDenaturation Temp. ([2]; CaCl2 25.0 mM vs 0 mM): 21.1 °C
Denaturation Temp. ([2]; CaCl2 50.0 mM): 65.6 °C
ΔDenaturation Temp. ([2]; CaCl2 50.0 mM vs 0 mM): 22.1 °C
Denaturation Temp. ([2]; CaCl2 100.0 mM): 65.2 °C
ΔDenaturation Temp. ([2]; CaCl2 100.0 mM vs 0 mM): 21.7 °C
stability in the presence of CaCl2 relative to NaCl ([2]; equivalent ionic strength): significantly greater stability
